Reference: patent publication US20250282885A1 (VST BIO, published 2025)
Positions count from the first letter of the chain named.

Columns and labels:
[1] = target: human Sdc2 on Human Umbilical Vein Endothelial Cells (HUVEC) (human, UniProt P34741 19-201); assay: cell-based or functional assay
human Sdc2 [2] = target: T1, human Sdc2 (human, UniProt P34741 19-144, limits assumed); assay: Kd (human Sdc2), summary table of the mAbs
T1 construct: Antigen of the Octet tandem binning, loaded on biosensors at 100 nM; also called huSdc2; hSdc2

human Sdc2 [3] = target: T1, human Sdc2; assay: Octet tandem binning; saturating Ab m2 19838-8G17-A
Protocol: (§1) These studies were performed in a tandem binning assay format with human Sdc2, used as the antigen (concentration of 100 nM). Antigen loaded biosensors were dipped in a saturating solution of antibody (25 μg/ml) for 240 seconds followed by a competing antibody at 5 μg/ml for 180 seconds. […] Since saturation is not possible to achieve saturation with these clones, they are removed in as ligands, but retained in the analyte orientation in the analysis. A table summarizing the results of epitope binning of the 18 antibodies against huSdc2 is illustrated in FIG. 30. Data is normalized, where the raw binding signal from Competing Ab for a given Saturating Ab is divided by binding in the absence a […] (“buffer”). The threshold determining the matrix color is adjustable and dependent upon Ag-Ab binding. […] Table rows are based on similar looking binding profiles. Note that the coloration/cutoff is subjective, yellow color added to represent injections with ambiguous or very weak sandwiching signals. FIG. 31 illustrates a clustergram of the epitope binning studies, which was generated from the normalized binning data by importation into the statistical computing program R (The R Project for Statistical Computing: at r-project.org) and generation of a clustergram with the pvclust package.

human Sdc2 [4] = target: T1, human Sdc2; assay: Octet tandem binning; saturating Ab f9 19838-6-E17-A
Protocol: as §1

human Sdc2 [5] = target: T1, human Sdc2; assay: Octet tandem binning; saturating Ab f12 19838-6-N03-A
Protocol: as §1

human Sdc2 [6] = target: T1, human Sdc2; assay: Octet tandem binning; saturating Ab m1 19838-20H19-AB
Protocol: as §1

human Sdc2 [7] = target: T1, human Sdc2; assay: Octet tandem binning; saturating Ab f10 19838-10-I12-A
Protocol: as §1

human Sdc2 [8] = target: T1, human Sdc2; assay: Octet tandem binning; saturating Ab f11 19838-20-H19-A
Protocol: as §1

human Sdc2 [9] = target: T1, human Sdc2; assay: Octet tandem binning; saturating Ab f4 19844-R3-P3-C11
Protocol: as §1

human Sdc2 [10] = target: T1, human Sdc2; assay: Octet tandem binning; saturating Ab f6 19844-R3-P3-E09
Protocol: as §1

human Sdc2 [11] = target: T1, human Sdc2; assay: Octet tandem binning; saturating Ab f7 19844-R3-P3-A12
Protocol: as §1

human Sdc2 [12] = target: T1, human Sdc2; assay: Octet tandem binning; saturating Ab m7 19844-R3-P1-E07
Protocol: as §1

human Sdc2 [13] = target: T1, human Sdc2; assay: Octet tandem binning; saturating Ab f5 19844-R4M-P3-E06
Protocol: as §1

human Sdc2 [14] = target: T1, human Sdc2; assay: Octet tandem binning; saturating Ab f8 19844-R4M-P2-C02
Protocol: as §1

human Sdc2 [15] = target: T1, human Sdc2; assay: Octet tandem binning; saturating Ab m4 19844-R4M-P1-A10
Protocol: as §1

human Sdc2 [16] = target: T1, human Sdc2; assay: Octet tandem binning; Buffer in place of a saturating Ab
Protocol: as §1

human Sdc2 [17] = target: T1, human Sdc2; assay: Octet tandem binning; saturating Ab m6 19838-20H19-AA (marked non-binding ligand)
Protocol: as §1

human Sdc2 [18] = target: T1, human Sdc2; assay: Octet tandem binning; saturating Ab m3 19844-R3-P1-C02 (row boxed, self-self >0.09)
Protocol: as §1

human Sdc2 [19] = target: T1, human Sdc2; assay: Octet tandem binning; saturating Ab m8 19844-R4M-P1-B01 (marked non-binding ligand)
Protocol: as §1

human Sdc2 [20] = target: T1, human Sdc2; assay: Octet tandem binning; saturating Ab m5 19844-R4M-P3-A12 (row boxed, self-self >0.09)
Protocol: as §1

human Sdc2 [21] = target: T1, human Sdc2; assay: Octet tandem binning; saturating Ab f3 19838-6N03-A
Protocol: as §1

human Sdc2 [22] = target: T1, human Sdc2; assay: Octet BLI, heading box over the sensorgram
Protocol: In order to characterize the binding affinity and in vivo/in vitro functional ability of the twelve clones generated by the previous studies and disclosed in Table 1, a series of assays were performed on each clone. These assays measured the affinity of each antibody clone for human, pig, and mouse Sdc2 using an Octet® binding assay system. Additionally, the functional ability of each clone to inhibit VEGFA-driven permeability (see Santiago, et al. (2021) J Am Heart Assoc. 10(18):e020521) was assessed in two therapeutic settings: a “prevention” study in which three concentrations of antibody (5 μg/ml, 10 μg/ml, 15 μg/ml, 20 μg/ml, and/or 40 μg/ml depending on the study) were pre-incubated for an hour before administration of 100 ng/ml of VEGFA, and a “treatment” study in which 3 hours of pre-treatment with 100 ng/ml VEGFA were followed by treatment with antibody at 20 μg/ml or 40 μg/ml. Results are shown for 8-G17 in FIG. 8 and FIG. 9, 20-H19-AB in FIG. 10 and FIG. 11 (FIG. 12 for monkey ECs), R3-P3-C11 in FIG. 13 and FIG. 14, R4M-P3-E06 in FIG. 15 and FIG. 16, R3-P3-E09 in FIG. 17 and FIG. 18, R3-P1-C02 in FIG. 19 and FIG. 20, R3-P3-A12 in FIG. 21 and FIG. 22, R4M-P3-A12 in FIG. 23 and FIG. 24, and R4M-P1-A10 in FIG. 25 and FIG. 26.

human Sdc2 [23] = target: T1, human Sdc2; assay: Octet BLI, HIS1K sensor loaded with hSdc2, antibody as sample; Full R2 0.9248

Sequence of human Sdc2 on Human Umbilical Vein Endothelial Cells (HUVEC) (P34741 19-201 limits assumed): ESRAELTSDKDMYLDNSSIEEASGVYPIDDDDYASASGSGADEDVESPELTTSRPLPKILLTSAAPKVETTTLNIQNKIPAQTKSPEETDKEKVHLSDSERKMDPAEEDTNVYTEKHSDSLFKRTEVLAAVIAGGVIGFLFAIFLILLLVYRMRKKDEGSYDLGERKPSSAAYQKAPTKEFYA
T1 sequence (P34741 19-144 limits assumed): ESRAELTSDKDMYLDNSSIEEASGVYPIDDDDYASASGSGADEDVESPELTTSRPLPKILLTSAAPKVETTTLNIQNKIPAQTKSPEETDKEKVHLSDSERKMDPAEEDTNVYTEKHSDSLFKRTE

B1: 6-N03-A (antibody, mouse IgG1, kappa, V domains shown)
VH: EVQLVESGGGLVKPGGSLKLSCEASGITFSNYVMSWVRQTPEKRLEWVATISDGGSYTYYPDNVKGRFTISRDNAKNNLYLQMSHLKSEDTAMYYCVRDRYDYDGRVYAMDYWGQGTSVTVSS
VL: DVVMTQTPLSLPVSLGDQASISCRSSQSLVHSNGDTYLHWYLQKPGQSPKLLIYKVSNRFSGVPDRFSGSGSGTDFTLKITRVEAEDLGVYFCSQSTHVPWTFGGGTKLEIKR
Q: Which “% Inhibition of VEGFA-induced permeability at 24hrs (20ug/ml)” value [1] does the source give for B1 here?
A: 50%

Q: And the Kd (human Sdc2 [2])?
A: 1.17 nM

Q: And the “raw competing-Ab binding signal” value (human Sdc2 [3])?
A: -0.0492

Q: What about the “raw competing-Ab binding signal” value (human Sdc2 [4]) of the same binder?
A: 0.422

Q: And the “raw competing-Ab binding signal” value (human Sdc2 [5])?
A: 0.0194

Q: And the “raw competing-Ab binding signal” value (human Sdc2 [6])?
A: 0.0812

Q: And the “raw competing-Ab binding signal” value (human Sdc2 [7])?
A: 0.0887

Q: What about the “raw competing-Ab binding signal” value (human Sdc2 [8]) of the same binder?
A: 0.0908

Q: And the “raw competing-Ab binding signal” value (human Sdc2 [9])?
A: 0.301

Q: What about the “raw competing-Ab binding signal” value (human Sdc2 [10]) of the same binder?
A: 0.346

Q: What about the “raw competing-Ab binding signal” value (human Sdc2 [11]) of the same binder?
A: 0.179

Q: And the “raw competing-Ab binding signal” value (human Sdc2 [12])?
A: 0.486

Q: And the “raw competing-Ab binding signal” value (human Sdc2 [13])?
A: 0.463

Q: What about the “raw competing-Ab binding signal” value (human Sdc2 [14]) of the same binder?
A: 0.418

Q: What about the “raw competing-Ab binding signal” value (human Sdc2 [15]) of the same binder?
A: 0.374

Q: And the “raw competing-Ab binding signal” value (human Sdc2 [16])?
A: 0.477

Q: And the “raw competing-Ab binding signal” value (human Sdc2 [17])?
A: 0.487

Q: What about the “raw competing-Ab binding signal” value (human Sdc2 [18]) of the same binder?
A: 0.397

Q: What about the “raw competing-Ab binding signal” value (human Sdc2 [19]) of the same binder?
A: 0.497

Q: What about the “raw competing-Ab binding signal” value (human Sdc2 [20]) of the same binder?
A: 0.472

B2: 19838-6-N03-A (antibody, IgG1, V domains shown)
VH: B1 VH
VL: B1 VL
Q: For B2, which “raw competing-Ab binding signal” value (human Sdc2 [21]) is on record?
A: 0.0058

Q: And the “raw competing-Ab binding signal” value (human Sdc2 [3])?
A: -0.0312

Q: And the “raw competing-Ab binding signal” value (human Sdc2 [4])?
A: 0.378

Q: And the “raw competing-Ab binding signal” value (human Sdc2 [6])?
A: 0.0556

Q: And the “raw competing-Ab binding signal” value (human Sdc2 [7])?
A: 0.0734

Q: And the “raw competing-Ab binding signal” value (human Sdc2 [8])?
A: 0.122

Q: What about the “raw competing-Ab binding signal” value (human Sdc2 [9]) of the same binder?
A: 0.197

Q: And the “raw competing-Ab binding signal” value (human Sdc2 [10])?
A: 0.31

Q: And the “raw competing-Ab binding signal” value (human Sdc2 [11])?
A: 0.162

Q: And the “raw competing-Ab binding signal” value (human Sdc2 [12])?
A: 0.48

Q: What about the “raw competing-Ab binding signal” value (human Sdc2 [13]) of the same binder?
A: 0.463

Q: And the “raw competing-Ab binding signal” value (human Sdc2 [14])?
A: 0.326

Q: And the “raw competing-Ab binding signal” value (human Sdc2 [15])?
A: 0.336

Q: What about the “raw competing-Ab binding signal” value (human Sdc2 [16]) of the same binder?
A: 0.413

Q: And the “raw competing-Ab binding signal” value (human Sdc2 [17])?
A: 0.501

Q: What about the “raw competing-Ab binding signal” value (human Sdc2 [18]) of the same binder?
A: 0.332

Q: What about the “raw competing-Ab binding signal” value (human Sdc2 [19]) of the same binder?
A: 0.388

Q: And the “raw competing-Ab binding signal” value (human Sdc2 [20])?
A: 0.435

B3: TP-43327F (antibody, human IgG1, kappa, V domains shown)
VH: QVQLVESGGGVVQPGGSLRLSCAASGFTFNIYAMHWVRQAPGKGLEWVARIGSKSSYYATYYADSVKGRFTISRDNSKNTLYLQMNSLRTEDTAVYYCVSGKGDWGQGTLVTVSS
VL: DVVMTQSPLSLPVTLGQPASISCRSSQSLLAGDGKTYLNWFLQRPGQSPRRLIYLVSKLDSGVPDRFSGSGSGTDFTLKISRVEAEDVGVYYCWQGTHFPWTFGAGTRLEIKR
Q: For B3, which “% Inhibition of VEGFA-induced permeability at 24hrs (20ug/ml)” value [1] is on record?
A: 100%

Q: And the Kd (human Sdc2 [2])?
A: < 0.1 nM

B4: TP-43329F (antibody, human IgG1, kappa, V domains shown)
VH: B3 VH
VL: B3 VL with L42Q
Q: What does the source list for B4?
A: % Inhibition of VEGFA-induced permeability at 24hrs (20ug/ml) [1]: 100%; Kd (human Sdc2 [2]): 0.8 nM

B5: R3-P3-E09 (antibody, human IgG1, kappa, V domains shown)
VH: EVQLVETGGGVVQPGRSLTLSCGASEFTFSNYAMHWVRQAPGKGLEWVAVISYDGTKKYYGDSVKGRFTISRENIKNTLYLQMNSLRSEDTAVYYCARDVGKGVTATGTFDIWGQGTMVTVSS
VL: AIRMTQSPSSLSASVGDRVTITCRASQGIGSYLAWFQQKPGEAPKSLIIDATRLKSGVPSRFSGSGSGTEFALTISSLRPEDFATYYCQQYNVSPLTFGGGTKVEIKR
notes: human IgG1 kappa from the phage campaign
Q: What does the source list for B5?
A: % Inhibition of VEGFA-induced permeability at 24hrs (20ug/ml) [1]: 75%; Kd (human Sdc2 [2]): 17.7 nM; Kd (human Sdc2 [22]): ~17.7 nM; raw competing-Ab binding signal (human Sdc2 [21]): 0.407; raw competing-Ab binding signal (human Sdc2 [3]): 0.397; raw competing-Ab binding signal (human Sdc2 [4]): 0.376; raw competing-Ab binding signal (human Sdc2 [5]): 0.518; raw competing-Ab binding signal (human Sdc2 [6]): 0.273; raw competing-Ab binding signal (human Sdc2 [7]): 0.151; raw competing-Ab binding signal (human Sdc2 [8]): 0.337; raw competing-Ab binding signal (human Sdc2 [9]): -0.138; raw competing-Ab binding signal (human Sdc2 [11]): -0.135; raw competing-Ab binding signal (human Sdc2 [12]): 0.348; raw competing-Ab binding signal (human Sdc2 [13]): 0.338; raw competing-Ab binding signal (human Sdc2 [14]): 0.209; raw competing-Ab binding signal (human Sdc2 [15]): 0.241; raw competing-Ab binding signal (human Sdc2 [16]): 0.285; Kd (human Sdc2 [23]): 17.7 nM; koff (human Sdc2 [23]): 0.00908 s⁻¹; kon (human Sdc2 [23]): 513000 M⁻¹ s⁻¹; raw competing-Ab binding signal (human Sdc2 [17]): 0.293; raw competing-Ab binding signal (human Sdc2 [18]): 0.246; raw competing-Ab binding signal (human Sdc2 [19]): 0.307; raw competing-Ab binding signal (human Sdc2 [20]): 0.304
